Data as given in patent US20070293451A1, “Regulation ao ApoB by Hsp110 proteins and related compositions and methods” (University of Pittsburgh, priority 2006, published 2007).

B1: Sse1p: active, recombinant purified yeast Hsp110 homolog Sse1p (GenBank NP_015219) (protein)
chain: STPFGLDLGNNNSVLAVARNRGIDIVVNEVSNRSTPSVVGFGPKNRYLGETGKNKQTSNIKNTVANLKRIIGLDYHHPDFEQESKHFTSKLVELDDKKTGAEVRFAGEKHVFSATQLAAMFIDKVKDTVKQDTKANITDVCIAVPPWYTEEQRYNIADAARIAGLNPVRIVNDVTAAGVSYGIFKTDLPEGEEKPRIVAFVDIGHSSYTCSIMAFKKGQLKVLGTACDKHFGGRDFDLAITEHFADEFKTKYKIDIRENPKAYNRILTAAEKLKKVLSANTNAPFSVESVMNDVDVSSQLSREELEELVKPLLERVTEPVTKALAQAKLSAEEVDFVEIIGGTTRIPTLKQSISEAFGKPLSTTLNQDEAIAKGAAFICAIHSPTLRVRPFKFEDIHPYSVSYSWDKQVEDEDHMEVFPAGSSFPSTKLITLNRTGDFSMAASYTDITQLPPNTPEQIANWEITGVQLPEGQDSVPVKLKLRCDPSGLHTIEEAYTIEDIEVEEPIPLPEDAPEDAEQEFKKVTKTVKKDDLTIVAHTFGLDAKKLNELIEKENEMLAQDKLVAETEDRKNTLEEYIYTLRGKLEEEYAPFASDAEKTKLQGMLNKAEEWLYDEGFDSIKAKYIAKYEELASLGNIIRGRYLAKEEEKKQAIRSKQEASQMAAMAEKLAAQRKAEAEKKEEKKDTEGDVDMD
B2: Hsp110: human Hsp110 over-expressed from an expression vector in McArdle cells (protein, UniProt Q92598 2-858, looked up)
Heat shock protein 105 kDa: SVVGLDVGSQSCYIAVARAGGIETIANEFSDRCTPSVISFGSKNRTIGVAAKNQQITHANNTVSNFKRFHGRAFNDPFIQKEKENLSYDLVPLKNGGVGIKVMYMGEEHLFSVEQITAMLLTKLKETAENSLKKPVTDCVISVPSFFTDAERRSVLDAAQIVGLNCLRLMNDMTAVALNYGIYKQDLPSLDEKPRIVVFVDMGHSAFQVSACAFNKGKLKVLGTAFDPFLGGKNFDEKLVEHFCAEFKTKYKLDAKSKIRALLRLYQECEKLKKLMSSNSTDLPLNIECFMNDKDVSGKMNRSQFEELCAELLQKIEVPLYSLLEQTHLKVEDVSAVEIVGGATRIPAVKERIAKFFGKDISTTLNADEAVARGCALQCAILSPAFKVREFSVTDAVPFPISLIWNHDSEDTEGVHEVFSRNHAAPFSKVLTFLRRGPFELEAFYSDPQGVPYPEAKIGRFVVQNVSAQKDGEKSRVKVKVRVNTHGIFTISTASMVEKVPTEENEMSSEADMECLNQRPPENPDTDKNVQQDNSEAGTQPQVQTDAQQTSQSPPSPELTSEENKIPDADKANEKKVDQPPEAKKPKIKVVNVELPIEANLVWQLGKDLLNMYIETEGKMIMQDKLEKERNDAKNAVEEYVYEFRDKLCGPYEKFICEQDHQNFLRLLTETEDWLYEEGEDQAKQAYVDKLEELMKIGTPVKVRFQEAEERPKMFEELGQRLQHYAKIAADFRNKDEKYNHIDESEMKKVEKSVNEVMEWMNNVMNAQAKKSLDQDPVVRAQEIKTKIKELNNTCEPVVTQPKPKIESPKLERTPNGPNIDKKEEDLEDKNNFGAEPPHQNGECYPNEKNSVNMDLD

Columns and labels:
ApoB48 = test: In vitro ApoB48 degradation assay in yeast cytosol with added purified protein; format: biochemical; conditions: purified protein added to wild type (SSE1) or delete (sse1) cytosols
Protocol: In vitro Analysis of ApoB Degradation: ^35S methionine labeled ApoB48 was synthesized in the presence of canine pancreatic microsomes (DPM; Promega, Madison, Wis.) using the SP6-TNT Kit (Promega) and plasmid pSPB48 (see above) as previously described (Gusarova, et al., 2001). The reaction mixture was then layered onto 1 mL SH buffer (0.25M sucrose, 5 mM Hepes, pH 7.4) and centrifuged at 100,000g for 30 min at 4° C. The microsomal pellets were resuspended in 12 μl of 2×PH buffer (40 mM HEPES, pH 7.4, 220 mM KCl, 10 mM MgCl2) and pooled. Cytosol, prepared as previously described (McCracken and Brodsky, 1996), was diluted to a specified concentration and pre-incubated with 0.25 mM MG132 (Peptides International) or an equivalent volume of DMSO for 15 min on ice. Following the pre-incubation, cytosol and ApoB48 were mixed 1:1 with these reagents at final concentrations of, 2 mM ATP, 10 mM creatine phosphate, and 100μg/mL creatine phosphokinase. Aliquots of the reaction were incubated at 37° C. for 5, 15 and 30 min or the indicated times and the reaction was quenched by adding an equal volume of 2×Urea Buffer (125 mM Tris, pH 6.8, 4% SDS, 6M Urea, 1 mM EDTA, 10 mM DTT, 250 mM β-mercaptoethanol, 20% Glycerol) and the mixture was heated at 96° C. for 4 min. […] Phosphorimager data was analyzed using Image Gauge software (Fuji Film Science Lab). […]

ApoB100 = ApoB100 biogenesis and secretion from McArdle cells (pulse-chase) on Hsp110 over-expression; format: cell-based, rat
Protocol: (§1) FIGS. 9A and 9B show the effect of Hsp110 over-expression on ApoB100 secretion from McArdle cells, a standard rat hepatoma cell model of lipoprotein metabolism. ApoB100 (FIG. 9A) and albumin (FIG. 9B) biogenesis and secretion were assessed by published pulse-chase analytical methods.
(§2) An Hsp110 expression vector was obtained from Dr. John Subjeck (Roswell Park Cancer Center, N.Y.), and either that vector or a vector control was introduced into McArdle cells—a rat hepatoma cell line that also expresses full-length ApoB (that is, ApoB100). […] As a control, there was no effect on albumin secretion from these cells, regardless of whether Hsp110 was over-expressed (FIG. 9B). Furthermore, the over-expression of Hsp110 in the McArdle cells in the presence of a microsomal triglyceride transfer protein (MTP) inhibitor (BMS-200150; Jamil, H., D. A. Gordon, D. C. Eustice, C. M. Brooks, J. K. Dickson, Jr., Y. Chen, B. Ricci, C.-H. Chu, T. W. Harrity, C. P. Ciosek, Jr., S. A. Biller, R. E. Gregg, and J. R. Wetterau. 1996. An inhibitor of the microsomal triglyceride transfer protein inhibits apoB secretion from HepG2 cells. Proc Natl Acad Sci USA. 93, 11991-95) increased the percent of apoB recovered in the lysate and medium fractions from 14% to 28% (data not shown).

albumin = test: Albumin secretion from McArdle cells (control); format: cell-based, rat; conditions: Hsp110 over-expressed or not
Protocol: as §1, §2

Row | Molecule | effect on ApoB48 in vitro (ApoB48) | percent of apoB recovered in the lysate and medium fractions (ApoB100; Hsp110 over-expression in the presence of MTP inhibitor BMS-200150, data not shown) [%] | amount of ApoB100 in cell extracts (ApoB100; especially notable at 30 min time point) | increase in the amount of ApoB 100 secreted (ApoB100; medium, Hsp110 vector vs vector control) [fold] | effect on albumin secretion (albumin)
1 | B1 | stabilizes ApoB48 | – | – | – | –
2 | B2 | – | 28 | concomitant increase | ~2 | no effect
